{
  "source": "patent US20200317803A1",
  "about": "“ANTI-CD73, ANTI-PD-L1 ANTIBODIES AND CHEMOTHERAPY FOR TREATING TUMORS” (MEDIMMUNE, LLC, priority 2019, published 2020)",
  "key": {"EGFRm NSCLC": {"tested_on": "EGFRm NSCLC", "details": "ATLANTIC trial, comparison for EGFRm NSCLC; cited from earlier work"}, "[1]": {"tested_on": "endogenous pathogen response (EBV, CMV)", "assay": "single dose cynomolgus monkey study: endogenous pathogen response", "assay_type": "in vivo, cynomolgus monkeys", "details": "single IV 1, 10 or 107.8 mg/kg", "experimental": "(§1) Five male cynomolgus monkeys were administered a single IV bolus dose of oleclumab at a dose of 0 mg/kg, 1 mg/kg, 10 mg/kg or 107.8 mg/kg. Serum was collected prior to the first dose at 0.08, 0.5, 2, 8 and 24 hours and 2, 3, 5, 7, 10, 14, 21, 28 and 35 days post dosing.\nThe endogenous pathogen response was also investigated by endogenous pathogen verification. Endogenous pathogen antibodies were measured using chemiluminescent ELISA on days 1, 8, 14, 15, and 29 and endogenous pathogen T cell IFN-γ ELISPOT was measured on days −14 and 29. LCV (monkey homologue of EBV) was detectable at low levels in most cynomolgus monkeys (FIG. 4)."}, "CD73 [2]": {"biological_target": "T1, CD73 (Homo sapiens, UniProt P21589)", "T1 construct": "from tissue; host or cells: patients' serum, peripheral T cells and tumour biopsies", "T1 sequence (P21589 27-549)": "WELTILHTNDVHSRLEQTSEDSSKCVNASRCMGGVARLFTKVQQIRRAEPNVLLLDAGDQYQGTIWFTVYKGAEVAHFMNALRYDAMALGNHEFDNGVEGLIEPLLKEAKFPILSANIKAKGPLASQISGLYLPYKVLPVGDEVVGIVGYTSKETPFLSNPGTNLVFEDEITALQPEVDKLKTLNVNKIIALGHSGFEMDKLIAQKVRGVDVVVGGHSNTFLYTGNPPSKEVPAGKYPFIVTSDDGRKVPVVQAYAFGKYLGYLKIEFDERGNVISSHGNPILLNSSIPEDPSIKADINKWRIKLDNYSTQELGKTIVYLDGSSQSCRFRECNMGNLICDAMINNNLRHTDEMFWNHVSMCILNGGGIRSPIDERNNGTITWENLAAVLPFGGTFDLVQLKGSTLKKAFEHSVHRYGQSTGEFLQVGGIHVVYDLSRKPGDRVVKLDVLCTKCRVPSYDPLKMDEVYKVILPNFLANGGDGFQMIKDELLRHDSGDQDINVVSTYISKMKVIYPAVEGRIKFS", "assay": "pharmacokinetic/pharmacodynamic model and human dose prediction", "details": "determined from tumor suppression data in syngeneic mice", "description": "A two-compartment model with linear and target-mediated drug disposition clearance was used to adequately describe the MEDI9447 serum concentration profiles. This model was used to describe the monkey pharmacokinetic data and then resulting parameters were allometrically scaled to humans to predict doses using simulation. (See Example 2.)\nFIGS. 6A and 6B show cynomolgus pharmacokinetic modeling and human dose prediction. Cynomolgus serum MEDI9447 concentration profiles (FIG. 6A) were described adequately all three different dose levels by a non-linear model shown schematically in (FIG. 5). Following allometric scaling of the pharmacokinetics parameters from this model, human serum concentration profiles were simulated (FIG. 6B). […] (See Example 2.)\nOleclumab dose selection was based on nonclinical data and clinical safety margins based on nonclinical safety data as described above for mice and monkeys. The pharmacologically driven starting dose level of 5 mg/kg oleclumab was anticipated to have 98% to 91% saturation of CD73 in the first dosing interval (peak and trough, respectively). […] The dose-escalation scheme in this study was designed to achieve higher and more sustained suppression of CD73 target, while maintaining adequate safety margins. […]"}, "CD73 [3]": {"biological_target": "T1, CD73", "assay": "Phase 1 study, pharmacodynamics (soluble, T cell and tumor CD73)", "assay_type": "in vivo", "details": "for CD73 surface expression on peripheral T cells (MFI, percent CD73+ CD4 and CD8 cells): human", "experimental": "(§2) Safety was assessed by the presence of adverse events (AEs), serious adverse events (SAEs), DLTs, and changes from baseline in laboratory parameters, vital signs, and electrocardiogram results. The endpoints for assessment of antitumor activity included objective response (OR), disease control (DC), duration of response (DoR), progression-free survival (PFS), and overall survival (OS). RECIST v1.1 was used for assessment of tumor response. Pharmacokinetic parameters included, but were not limited to, maximum observed concentration, area under the concentration time curve, clearance, and terminal half-life. The endpoints for assessment of immunogenicity of oleclumab and durvalumab included the number and percentage of subjects who developed detectable anti-drug antibodies and the endpoints for assessment of pharmacodynamic activity included assessment of target expression (e.g., CD73, PD-L1) in tumor biopsy specimens.\n(§3) In the oleclumab monotherapy dose-escalation arm, sequential cohorts of 3 to 6 subjects each received 1 of 4 dose levels of oleclumab (5, 10, 20, or 40 mg/kg) via IV infusion Q2W unless the maximum tolerated dose (MTD) was reached before all dose-escalation cohorts were completed (FIG. 8). In the oleclumab/durvalumab combination therapy dose-escalation arm, sequential cohorts of 3 to 6 subjects each received 1 of 4 dose levels of oleclumab (5, 10, 20, or 40 mg/kg) and a single dose level of 10 mg/kg durvalumab via IV infusion Q2W, unless the MTD was reached before all dose-escalation cohorts were completed (FIG. 8). If the MTD of oleclumab was exceeded at the 5 mg/kg dose level in the monotherapy or combination therapy arm, a lower dose level of 2 mg/kg oleclumab was explored in that arm."}, "[4]": {"assay": "Phase 1 study, pharmacokinetics and immunogenicity of oleclumab", "assay_type": "in vivo", "details": "human", "experimental": "as §2, §3\nThe following PK data is based on a total of 97 subjects following treatment with oleclumab 5 to 40 mg/kg Q2W administered either as monotherapy (n=40) or in combination with durvalumab at 10 mg/kg Q2W (n=57). […] Serum exposures were similar when oleclumab was administered either alone or in combination with durvalumab."}, "[5]": {"tested_on": "blood or peripheral blood mononuclear cell from healthy donors", "assay": "human in vitro cytokine release assays", "assay_type": "cell-based", "details": "in solution or immobilized on plastic wells by dry-coating", "experimental": "The ability of oleclumab (alone or in combination with durvalumab) to induce cytokine release was evaluated in human in vitro assays using blood or peripheral blood mononuclear cell from healthy donors."}, "[6]": {"tested_on": "exogenous antigen (KLH) response", "assay": "single dose cynomolgus monkey study: exogenous antigen (KLH) response", "assay_type": "in vivo, cynomolgus monkeys", "details": "single IV 1, 10 or 107.8 mg/kg", "experimental": "as §1\nTo determine immune modulation, the exogenous antigen (KLH) response was measured. The exogenous antigen (KLH) response was determined by first immunizing the monkeys on day 1 with adjuvant free KLH. KLH T cell-dependent antibody response (TDAR) was conducted on days 7, 8, 11, 15, 22, 29, and 36. Ex vivo KLH stimulation of PBMC IFN-γ and IL-2 ELISPOT was determined on days 1, 4, 8, 7, 15, and 22."}, "[7]": {"assay": "GLP 5-week repeat IV infusion toxicity study in cynomolgus monkeys", "assay_type": "in vivo", "experimental": "(§4) Mouse and cynomolgus monkey were selected as pharmacologically relevant species for evaluation of the toxicity of oleclumab. […] Systemic and local toxicities of oleclumab were evaluated in Good Laboratory Practice (GLP) toxicity studies in CD-1 mice (5-week, repeat intravenous [IV] bolus dose, once every 4 days, total 9 doses) at 0 mg/kg, 100 mg/kg or 200 mg/kg and cynomolgus monkeys (5-week, repeat IV 30-minute infusion dose, once weekly, total 5 doses) at 0 mg/kg, 30.5 mg/kg, 103.7 or 300.7 mg/kg."}, "[8]": {"assay": "GLP 5-week repeat IV bolus dose toxicity study in CD-1 mice", "assay_type": "in vivo", "experimental": "as §4"}, "[9]": {"details": "cynomolgus monkey, in vivo, 300.7 mg/kg"}},
  "note": "“Also recorded” adds a separate entry of the source.",
  "data": [
    {"substance": "durvalumab: antibody that selectively binds PD-L1 and blocks the binding of PD-L1 to the PD-1 and CD80 receptors", "values": [
      {"measurement": "ORR, durvalumab monotherapy", "setting": "EGFRm NSCLC", "result": 9.8, "unit": "%"}
    ]},
    {"substance": "oleclumab: human immunoglobulin G1 lambda mAb that selectively binds to and inhibits the ectonucleotidase activity of CD73; VL SEQ ID NO: 1, VH SEQ ID NO: 2", "values": [
      {"measurement": "IgG titers to EBV gp125 and CMV gB", "setting": "[1]", "result": "did not vary with oleclumab treatment"},
      {"measurement": "T cell responses to EBV BZLF1 and inactivated human CMV", "setting": "[1]", "result": "did not vary consistently with oleclumab treatment"},
      {"measurement": "serum exposure target", "setting": "CD73 [2]", "result": 52, "unit": "µg/mL"},
      {"measurement": "CD73 staining tumor cells by IHC", "setting": "CD73 [3]; 40 mg/kg dose, 20 days after treatment initiation", "result": "decrease in CD73 staining tumor cells"},
      {"measurement": "total CD4 and CD8 cells", "setting": "CD73 [3]; human peripheral blood, across all doses", "result": "without a concomitant decrease"},
      {"measurement": "CD73 enzymatic activity in tumor microenvironment", "setting": "CD73 [3]; human tumor staining", "result": "inhibited CD73 enzymatic activity"},
      {"measurement": "CD73 surface expression on peripheral T cells (MFI, percent CD73+ CD4 and CD8 cells)", "setting": "CD73 [3]; across all doses", "result": "decreased CD73 on peripheral T cells"},
      {"measurement": "CD73 surface expression on peripheral T cells (MFI, percent CD73+ CD4 and CD8 cells)", "setting": "CD73 [3]; across all doses, listed as Oleclumab", "result": "decreased CD73 surface expression"},
      {"measurement": "free serum soluble CD73 levels", "setting": "CD73 [3]; majority of subjects at all times after the first dose, limit of detection", "result": "< 0.25", "unit": "ng/mL"},
      {"measurement": "patients with decreased tumoral CD73 expression", "setting": "CD73 [3]; oleclumab alone, patients who expressed >5% 2+/3+ CD73 at baseline", "result": "5/9"},
      {"measurement": "CD8+ TILs", "setting": "CD73 [3]; samples with decreased tumoral CD73", "result": "increasing CD8+ TILs in all 5 samples"},
      {"measurement": "tissue cross reactivity staining", "setting": "human tissue panel", "result": "staining with oleclumab was observed in multiple cell types"},
      {"measurement": "anti-drug antibodies (ADAs)", "setting": "[4]", "result": "No ADAs were detected"},
      {"measurement": "estimated effective half-life in the dosing duration", "setting": "[4]", "result": "~13", "unit": "days"},
      {"measurement": "serum concentration expected to saturate >99% CD73", "setting": "[4]", "result": "above 40 μg/mL"},
      {"measurement": "serum exposures alone versus in combination with durvalumab", "setting": "[4]; 5 to 40 mg/kg Q2W", "result": "similar"},
      {"measurement": "increase of Ctrough with dose", "setting": "[4]; from oleclumab 5 to 10 mg/kg", "result": "more than proportional"},
      {"measurement": "increase of Ctrough with dose", "setting": "[4]; from oleclumab 10 to 40 mg/kg", "result": "approximately dose proportional"},
      {"measurement": "PK linearity at lowest dose", "setting": "[4]; oleclumab 5 mg/kg Q2W, monotherapy and combination cohorts", "result": "nonlinear PK"},
      {"measurement": "PK linearity at higher doses", "setting": "[4]; oleclumab 10 mg/kg and higher Q2W", "result": "Linear PK"},
      {"measurement": "cytokine release", "setting": "[5]", "result": "did not induce cytokine release"},
      {"measurement": "T cell responses to ex vivo KLH stimulation (IFN-γ, IL-2 ELISPOT of PBMC)", "setting": "[6]", "result": "did not vary with oleclumab treatment; also recorded: did not increase"},
      {"measurement": "anti-KLH IgM and IgG antibody responses (KLH TDAR)", "setting": "[6]", "result": "did not show dose-dependent increase; also recorded: did not enhance"},
      {"measurement": "responses to exogenous antigen (KLH)", "setting": "[6]", "result": "did not enhance responses"},
      {"measurement": "effects on safety pharmacology endpoints (ECGs, blood pressure, behavioral examinations)", "setting": "[7]; cynomolgus monkey, in vivo", "result": "no oleclumab-related effects"},
      {"measurement": "AUC0-168.5hr", "setting": "[7]; [9]", "result": "834,000 μg·hr/mL"},
      {"measurement": "Cmax", "setting": "[7]; [9]", "result": "11,000 μg/mL"},
      {"measurement": "no-observed-adverse-effect level (NOAEL)", "setting": "[7]; cynomolgus monkeys, highest dose tested", "result": 300.7, "unit": "mg/kg/dose"},
      {"measurement": "no-observed-adverse-effect level (NOAEL)", "setting": "[8]; CD-1 mice, highest dose tested", "result": 200, "unit": "mg/kg/dose"},
      {"measurement": "AUC0-96hr", "setting": "[8]; mouse, in vivo, 200 mg/kg", "result": "229,000 μg·hr/mL"},
      {"measurement": "Cmax", "setting": "[8]; mouse, in vivo, 200 mg/kg", "result": "6,200 μg/mL"}
    ]}
  ]
}
